T1: MMP7 catalytic domain (UniProt P09237 95-267)
T1 sequence (looked up): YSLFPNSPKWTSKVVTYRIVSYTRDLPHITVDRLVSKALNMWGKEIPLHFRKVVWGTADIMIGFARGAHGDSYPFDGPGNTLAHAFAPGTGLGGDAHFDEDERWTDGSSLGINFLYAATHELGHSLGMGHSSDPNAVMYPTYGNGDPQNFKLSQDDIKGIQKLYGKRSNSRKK

T2: TACE pro-domain (wild type)
T2 chain: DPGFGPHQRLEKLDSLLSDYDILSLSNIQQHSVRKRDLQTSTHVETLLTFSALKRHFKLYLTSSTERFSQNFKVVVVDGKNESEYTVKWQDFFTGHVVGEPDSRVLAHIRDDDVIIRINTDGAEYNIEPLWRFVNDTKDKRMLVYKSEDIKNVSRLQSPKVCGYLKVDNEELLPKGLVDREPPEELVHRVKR

T3: TACE pro-domain R58A mutant
T3 chain: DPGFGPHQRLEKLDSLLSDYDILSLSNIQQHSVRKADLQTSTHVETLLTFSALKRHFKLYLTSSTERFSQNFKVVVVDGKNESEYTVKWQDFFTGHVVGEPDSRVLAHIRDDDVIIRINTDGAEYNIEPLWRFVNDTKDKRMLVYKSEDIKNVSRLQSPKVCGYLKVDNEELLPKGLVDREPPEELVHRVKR


How the values were obtained:
TACE catalytic domain = TACE catalytic domain (UniProt P78536 215-477, limits assumed); experiment: cell-based or functional assay
Sequence of TACE catalytic domain (P78536 215-477 limits assumed): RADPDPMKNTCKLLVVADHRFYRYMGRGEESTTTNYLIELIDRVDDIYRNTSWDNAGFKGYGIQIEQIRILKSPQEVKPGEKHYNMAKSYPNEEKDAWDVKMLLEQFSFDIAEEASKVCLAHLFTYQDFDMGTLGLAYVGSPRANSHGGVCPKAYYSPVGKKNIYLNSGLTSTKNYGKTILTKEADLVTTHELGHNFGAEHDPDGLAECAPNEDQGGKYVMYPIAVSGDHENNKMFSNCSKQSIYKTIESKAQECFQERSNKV

MMP9 catalytic domain = MMP9 catalytic domain (UniProt P14780 107-444, limits assumed); experiment: cell-based or functional assay
Sequence of MMP9 catalytic domain (P14780 107-444 limits assumed): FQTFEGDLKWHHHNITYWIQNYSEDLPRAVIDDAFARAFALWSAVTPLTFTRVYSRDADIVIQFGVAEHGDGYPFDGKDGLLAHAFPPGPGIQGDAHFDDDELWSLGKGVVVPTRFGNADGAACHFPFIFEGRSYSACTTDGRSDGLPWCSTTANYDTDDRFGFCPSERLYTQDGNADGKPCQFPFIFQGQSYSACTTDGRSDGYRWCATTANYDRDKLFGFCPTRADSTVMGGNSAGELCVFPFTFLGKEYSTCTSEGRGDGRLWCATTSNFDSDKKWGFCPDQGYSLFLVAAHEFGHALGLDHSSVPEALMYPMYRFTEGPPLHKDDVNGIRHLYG

MMP7 catalytic domain = target: T1, MMP7 catalytic domain; experiment: cell-based or functional assay
[1] = target: T2, TACE pro-domain (wild type)
[2] = target: T3, TACE pro-domain R58A mutant

Molecule	IC50, proteolytic activity of TACE (TACE catalytic domain)	IC50, catalytic activity on fluorogenic peptide (TACE catalytic domain)	IC50, catalytic activity on fluorogenic peptide (MMP9 catalytic domain)	IC50 relative to the IC50 towards TACE (MMP9 catalytic domain)	IC50, catalytic activity on fluorogenic peptide (MMP7 catalytic domain)	IC50 relative to the IC50 towards TACE (MMP7 catalytic domain)	cleavage by Furin (SDS-PAGE) [1]	cleavage by Furin (SDS-PAGE) [2]
TACE pro-domain R58A mutant (from UniProt P78536 23-214)	55 nM							
TACE pro-domain (wild type) (other) DPGFGPHQRLEKLDSLLSDYDILSLSNIQQHSVRKRDLQTSTHVETLLTFSALKRHFKLYLTSSTERFSQNFKVVVVDGKNESEYTVKWQDFFTGHVVGEPDSRVLAHIRDDDVIIRINTDGAEYNIEPLWRFVNDTKDKRMLVYKSEDIKNVSRLQSPKVCGYLKVDNEELLPKGLVDREPPEELVHRVKR	23 nM	119 nM	4.48 µM	40 fold	8.79 µM	80 fold		
Furin (protein) DVYQEPTDPKFPQQWYLSGVTQRDLNVKAAWAQGYTGHGIVVSILDDGIEKNHPDLAGNYDPGASFDVNDQDPDPQPRYTQMNDNRHGTRCAGEVAAVANNGVCGVGVAYNARIGGVRMLDGEVTDAVEARSLGLNPNHIHIYSASWGPEDDGKTVDGPARLAEEAFFRGVSQGRGGLGSIFVWASGNGGREHDSCNCDGYTNSIYTLSISSATQFGNVPWYSEACSSTLATTYSSGNQNEKQIVTTDLRQKCTESHTGTSASAPLAAGIIALTLEANKNLTWRDMQHLVVQTSKPAHLNANDWATNGVGRKVSHSYGYGLLDAGAMVALAQNWTTVAPQRKCIIDILTEPKDIGKRLEVRKTVTACLGEPNHITRLEHAQARLTLSYNRRGDLAIHLVSPMGTRSTLLAARPHDYSADGFNDWAFMTTHSWDEDPSGEWVLEIENTSEANNYGTLTKFTLVLYGTA							Only pro-WT was processed by Furin generating a smaller fragment of ˜17kDa	pro-R58A mutant was not cleaved by Furin
